Consider one substance from patent US20240398911A1.

Common to all, as to test: BLI, sACE22-IgG1 immobilized, RBD-8h analyte
Background: Biolayer interferometry detects binding as a change in optical thickness at a sensor tip.

In test [1] the target is 8his-tagged RBD of the S protein of bat coronavirus isolate LYRa11 (bat coronavirus LYRa11).
For test [2], the target named is 8his-tagged RBD of the S protein of bat coronavirus isolate Rs7327 (bat coronavirus Rs7327).
Test [3] has as its target 8his-tagged RBD of the S protein of bat coronavirus isolate Rs4231 (bat coronavirus Rs4231).
Test [4] addresses 8his-tagged RBD of the S protein of bat coronavirus isolate RsSHC014 (bat coronavirus RsSHC014).
The target of test [5] is 8his-tagged RBD of the S protein of bat coronavirus isolate Rs4084 (bat coronavirus Rs4084).

On to “wild type dimeric sACE22 (a.a. S19-G732) fused to the Fc of human IgG1 (from UniProt Q9BYF1 19-732) (Fc fusion)”, for which the Kd in test [1] came to 91 nM; in test [2], 63 nM; in test [3] it was 69 nM; in test [4] it was 29 nM; in test [5], 85 nM. Also, the koff was 0.079 s⁻¹ in test [1]; 0.04 s⁻¹ in test [2]; 0.022 s⁻¹ in test [3]; 0.026 s⁻¹ in test [4]; 0.025 s⁻¹ in test [5]. Besides, the kon worked out at 870000 M⁻¹ s⁻¹ in test [1]; 640000 M⁻¹ s⁻¹ in test [2]; 320000 M⁻¹ s⁻¹ in test [3]; 880000 M⁻¹ s⁻¹ in test [4]; 290000 M⁻¹ s⁻¹ in test [5].

By Kd is commonly meant a measure of binding affinity in units of concentration. A low value points to higher affinity. Broadly, the koff is a measure of how fast the partners let go of each other. A higher koff goes with fast dissociation. By kon is commonly meant the rate constant with which the complex forms.
